Article PMC7218104, “Consensus Design of an Evolved High-Redox Potential Laccase” (Frontiers in Bioengineering and Biotechnology, 2020)
Residue numbers refer to the chain shown, from its start. Names and notes keep the numbering of the source.

B1: OB-1 laccase (evolved variant of PM1 laccase, PM1Lac) (basidiomycete PM1; A260P/A482T/D302E/H229Y/S245G/S447N/V183A) (protein)
chain: SIGPVADLTISNGAVSPDGFSRQAILVNDVFPSPLITGNKGDRFQLNVIDNMTNHTMLKSTSIHWHGFFQHGTNWADGPAFVNQCPISTGHAFLYDFQVPDQAGTFWYHSHLSTQYCDGLRGPIVVYDPQDPHKSLYDVDDDSTVITLADWYHLAAKVGPAAPTADATLINGLGRSINTLNADLAVITVTKGKRYRFRLVSLSCDPNYTFSIDGHSLTVIEADGVNLKPQTVDSIQIFPAQRYSFVLNADQDVDNYWIRALPNSGTRNFDGGVNSAILRYEGAAPVEPTTTQTPSTQPLVESALTTLEGTAAPGNPTPGGVDLALNMAFGFAGGRFTINGASFTPPTVPVLLQILSGAQSAQDLLPSGSVYSLPANADIEISLPATSAAPGFPHPFHLHGHTFAVVRSAGSSTYNYANPVYRDVVNTGSPGDNVTIRFRTDNPGPWFLHCHIDFHLEAGFTVVMAEDIPDVAATNPVPQAWSDLCPTYDALSPDDQ
notes: mature laccase secreted from S. cerevisiae BJ5465 (pJRoC30) with evolved alpha-factor prepro-leader carrying V[alpha10]D, N[alpha23]K, A[alpha87]T; purified to homogeneity
B2: OB-1 laccase (evolved variant of PM1 laccase, PM1Lac) (basidiomycete PM1; A260P/A261G/A482T/D302E/H229Y/S245G/S447N/V183A) (protein)
chain: B1 chain with A240G
notes: as for B1

Legend:
Experiment in all cases: purified protein
Conditions in all cases: sodium phosphate/citrate buffer 100 mM, pH 4.0
purified protein [1] = substrate: COc1cc(/C=C/C(=O)O)cc(OC)c1O; type: biochemical, basidiomycete PM1
purified protein [2] = substrate: COc1cccc(OC)c1O; type: biochemical, basidiomycete PM1
purified protein [3] = substrate: CCn1c(=NN=c2sc3cc(S(=O)(=O)O)ccc3n2CC)sc2cc(S(=O)(=O)O)ccc21; type: biochemical, basidiomycete PM1
purified protein [4] = substrate: COc1ccccc1O

| Protein | Km (purified protein [1]) | kcat (purified protein [1]) | kcat/Km (purified protein [1]) | Km (purified protein [2]) | kcat (purified protein [2]) | kcat/Km (purified protein [2]) | Km (purified protein [3]) | kcat (purified protein [3]) | kcat/Km (purified protein [3]) | Km (purified protein [4]) | kcat (purified protein [4]) | kcat/Km (purified protein [4]) |
| --- | --- | --- | --- | --- | --- | --- | --- | --- | --- | --- | --- | --- |
| B1 | 320 ± 20 µM | 741 ± 14.1 s⁻¹ | 2.29e+06 M⁻¹ s⁻¹ | 150 ± 10 µM | 565 ± 13 s⁻¹ | 3.84e+06 M⁻¹ s⁻¹ | 7 ± 0.6 µM | 690 ± 20.2 s⁻¹ | 1.06e+08 M⁻¹ s⁻¹ | 2600 ± 400 µM | 117 s⁻¹ | 44600 M⁻¹ s⁻¹ |
| B2 | 450 ± 60 µM | 1430 ± 65.2 s⁻¹ | 3.18e+06 M⁻¹ s⁻¹ | 230 ± 10 µM | 1130 ± 18.4 s⁻¹ | 5.56e+06 M⁻¹ s⁻¹ | 9 ± 0.9 µM | 1330 ± 42.3 s⁻¹ | 1.4e+08 M⁻¹ s⁻¹ | 3400 ± 400 µM | 171 s⁻¹ | 50300 M⁻¹ s⁻¹ |
